Results taken from patent publication US20160160263.

T1: TIAH/LH, MMP2 selective substrate
T1 chain: TIAHLH

T2: YGRAAA (SEQ ID NO: 17), uPA selective substrate
T2 chain: YGRAAA


Experiments:
[1] = molecular target: T1, TIAH/LH, MMP2 selective substrate
[2] = molecular target: T2, YGRAAA (SEQ ID NO: 17), uPA selective …

Row | Protein | cleavage of ACPP substrate by protease [1] | cleavage of ACPP substrate by protease [2]
1 | MMP-2 (protein) YNFFPRKPKWDKNQITYRIIGYTPDLDPETVDDAFARAFQVWSDVTPLRFSRIHDGEADIMINFGRWEHGDGYPFDGKDGLLAHAFAPGTGVGGDSHFDDDELWTLGEGQVVRVKYGNADGEYCKFPFLFNGKEYNSCTDTGRSDGFLWCSTTYNFEKDGKYGFCPHEALFTMGGNAEGQPCKFPFRFQGTSYDSCTTEGRTDGYRWCGTTEDYDRDKKYGFCPETAMSTVGGNSEGAPCVFPFTFLGNKYESCTSAGRSDGKMWCATTANYDDDRKWGFCPDQGYSLFLVAAHEFGHAMGLEHSQDPGALMAPIYTYTKNFRLSQDDIKGIQELYGASPDIDLGTGPTPTLGPVTPEICKQDIVFDGIAQIRGEIFFFKDRFIWRTVTPRDKPMGPLLVATFWPELPEKIDAVYEAPQEEKAVFFAGNEYWIYSASTLERGYPKPLTSLGLPPDVQRVDAAFNWSKNKKTYIFAGDKFWRYNEVKKKMDPGFPKLIADAWNAIPDNLDAVVDLQGGGHSYFFKGAYYLKLENQSLKSVKFGSIKSDWLGC | selectively cleaved by MMP-2 versus 9 and 14 | –
2 | tissue plasminogen activator (tPA) (protein) SYQVICRDEKTQMIYQQHQSWLRPVLRSNRVEYCWCNSGRAQCHSVPVKSCSEPRCFNGGTCQQALYFSDFVCQCPEGFAGKCCEIDTRATCYEDQGISYRGTWSTAESGAECTNWNSSALAQKPYSGRRPDAIRLGLGNHNYCRNPDRDSKPWCYVFKAGKYSSEFCSTPACSEGNSDCYFGNGSAYRGTHSLTESGASCLPWNSMILIGKVYTAQNPSAQALGLGKHNYCRNPDGDAKPWCHVLKNRRLTWEYCDVPSCSTCGLRQYSQPQFRIKGGLFADIASHPWQAAIFAKHRRSPGERFLCGGILISSCWILSAAHCFQERFPPHHLTVILGRTYRVVPGEEEQKFEVEKYIVHKEFDDDTYDNDIALLQLKSDSSRCAQESSVVRTVCLPPADLQLPDWTECELSGYGKHEALSPFYSERLKEAHVRLYPSSRCTSQHLLNRTVTDNMLCAGDTRSGGPQANLHDACQGDSGGPLVCLNDGRMTLVGIISWGLGCGQKDVPGVYTKVTNYLDWIRDNMRP | – | to a lesser extent by tPA
